± gives the uncertainty stated by the source.
Assay: self-splicing fitness, log relative to wild type (ln ratio); higher = more splicing; Tetrahymena group I intron in knt gene, E. coli kanamycin selection, DiMSum; sequences stand for … in CUCUCU…GGAGGGAAAAGUUAUCAGGCAUGCACCUGGUAGCUAGUCUUUAAACCAAUAGAUUGCAUCGGUUUAAAAGGCAAGACCGUCAAAUUGCGGGAAAGGGGUCAACAGCCGUUCAGUACCAAGUCUCAGGGGAAACUUUGAGAUGGCCUUGCAAAGGGUAUGGUAAUAAGCUGACGGACAUGGUCCUAACCACGCAGCCAAGUCCUAAGUCAACAGAUCUUCUGUUGAUAUGGAUGCAGUUCACAGACUAAAUGUCGGUCGGGGAAGAUGUAUUCUUCUCAUAAGAUAUAGUCGGACCUCUCCUUAAUGGGAGCUAGCGGAUGAAGUGAUGCAACACUGGAGCCGCUGGGAACUAAUUUGUAUGCGAAAGUAUAUUGAUUAGUUUUGGAGUACUCGUGGUCG
Procedure, shortened: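 The eight P1ex-region nucleotides of an intron in the knt kanamycin-resistance gene on pET-22b(+) were all randomised and the library put into E. coli BL21(DE3). Six replicate transformations were grown overnight at 37°C or 30°C on LB agar with or without 25 μg/mL kanamycin, together with 100 μg/mL carbenicillin, 50 μM IPTG and 0.2% rhamnose. Colonies were pooled and amplicon-sequenced on an Illumina HiSeq 2500. Fitness from DiMSum is the error-weighted combination of wild-type-normalised replicate fold changes, kanamycin over none.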

Sequence	self-splicing fitness (ln) (30 °C)	self-splicing fitness (ln) (37 °C)
AGUUAGCAAUAUUACGUCCC	-0.148 ± 0.21	-0.452 ± 0.2
AGUUAGCAAUAUUACGUCCU	0.147 ± 0.09	0.0687 ± 0.091
AGUUAGCAAUAUUACGUGAC	-2.66 ± 0.24	-2.9 ± 0.33
AGUUAGCAAUAUUACGUGAU	-3.08 ± 0.21	-1.19 ± 0.18
AGUUAGCAAUAUUACGUGCA	-1.6 ± 0.14	-0.22 ± 0.15
AGUUAGCAAUAUUACGUGUG	-3.18 ± 0.15	-1.8 ± 0.13
AGUUAGCAAUAUUACGUGUU	-3.25 ± 0.15	-1.52 ± 0.14
AUAAAGCAAUAUUACGACAC	-0.305 ± 0.11	-0.252 ± 0.13
AUAAAGCAAUAUUACGAGAC	-2.89 ± 0.17	-1.63 ± 0.19
AUAAAGCAAUAUUACGAGAU	-2.31 ± 0.11	-1.22 ± 0.12
AUAAAGCAAUAUUACGAGCA	-0.252 ± 0.074	-0.299 ± 0.082
AUAAAGCAAUAUUACGAUAU	-0.0773 ± 0.088	0.168 ± 0.1
AUAAAGCAAUAUUACGAUUG	-2.38 ± 0.14	-1.14 ± 0.16
AUAAAGCAAUAUUACGCAAA	-1.01 ± 0.1	-1.03 ± 0.14
AUAAAGCAAUAUUACGCAGU	-1.89 ± 0.11	-0.968 ± 0.096
AUAAAGCAAUAUUACGCAUC	-3.37 ± 0.26	-1.74 ± 0.3
AUAAAGCAAUAUUACGCCCA	0.167 ± 0.18	-0.307 ± 0.23
AUAAAGCAAUAUUACGGAUA	-1.7 ± 0.11	-0.75 ± 0.11
AUAAAGCAAUAUUACGGCGU	0.632 ± 0.068	0.894 ± 0.1
AUAAAGCAAUAUUACGGGUC	-3.45 ± 0.19	-1.25 ± 0.15
AUAAAGCAAUAUUACGGUGU	-1.25 ± 0.068	-0.672 ± 0.082

Sequence	self-splicing fitness (ln) (30 °C)	self-splicing fitness (ln) (37 °C)
AUAAAGCAAUAUUACGUACC	0.0438 ± 0.19	-0.16 ± 0.4
AUAAAGCAAUAUUACGUCAU	-0.954 ± 0.056	-0.228 ± 0.083
AUAAAGCAAUAUUACGUGGU	-2.45 ± 0.094	-1.64 ± 0.1
AUAAAGCAAUAUUACGUGUU	-2.97 ± 0.071	-1.11 ± 0.068
AUAAAGCAAUAUUACGUUGU	-2.65 ± 0.11	-1.9 ± 0.11
AUACAGCAAUAUUACGACUU	-0.367 ± 0.065	0.271 ± 0.081
AUACAGCAAUAUUACGAGAC	-4.95 ± 0.41	-1.82 ± 0.18
AUACAGCAAUAUUACGAUAU	-1.45 ± 0.092	-0.42 ± 0.1
AUACAGCAAUAUUACGAUCC	-0.368 ± 0.12	-1.59 ± 0.15
AUACAGCAAUAUUACGCAAC	-2.13 ± 0.16	-1.49 ± 0.15
AUACAGCAAUAUUACGCCCA	-0.142 ± 0.1	-0.545 ± 0.14
AUACAGCAAUAUUACGCGUU	-3.01 ± 0.14	-0.461 ± 0.099
AUACAGCAAUAUUACGCUAC	-2.36 ± 0.35	
AUACAGCAAUAUUACGCUGG	-2.29 ± 0.13	-2.76 ± 0.25
AUACAGCAAUAUUACGGACC	-0.965 ± 0.21	-1.07 ± 0.26
AUACAGCAAUAUUACGGAUC	-3.54 ± 0.23	-2.53 ± 0.23
AUACAGCAAUAUUACGGGGG	-3.43 ± 0.25	-2.84 ± 0.25
AUACAGCAAUAUUACGGGGU	-3.29 ± 0.13	-1.69 ± 0.093
AUACAGCAAUAUUACGGUGC	-3.65 ± 0.19	-1.74 ± 0.16
AUACAGCAAUAUUACGUAAC	-3.13 ± 0.11	-1.25 ± 0.077
AUACAGCAAUAUUACGUGAU	-2.14 ± 0.084	-0.569 ± 0.089

Reference: the supplement of paper PMC7877785
